# Test results as given in patent publication US20260007756A1, “COMPOUND AND USE THEREOF” (COHERENT BIOPHARMA (SUZHOU) LIMITED, priority 2022, published 2026).
# Read-outs that look alike come from different tables or passages of the source.
# How the values were obtained:
# LNCaP [1] = assay: Expansion inhibition of tumor cells (Example 10, CCK-8); assay type: cell-based; conditions: Homo sapiens, LNCap (PSMA overexpression), 72 h
# Description: Samples were serially diluted with medium (serially 5-fold diluted from 10 μM) to 9 concentrations. […] Negative and blank controls were set.
# (§1) A CCK-8 developing solution was added at 10 μL/well (10% of the liquid volume in the wells). The plates were incubated at 37° C. for a proper time (the OD value was controlled within the range of 1.0-2.5 as possible). The plate covers were removed, and the 96-well plates were loaded on a microplate reader (Molecular Devices SpectraMax iD5) to read the measurement at 450 nm.
# [2] = system: human prostate cancer 22RV1 cell subcutaneous xenograft tumor; assay: Pharmacodynamic assessment, 22RV1 xenograft model; assay type: in vivo
# From the text: Objective: Pre-clinical pharmacodynamic study of compounds for treating BALB/c nude mouse model with 22RV1 cell subcutaneous xenograft tumor (overexpressing PSMA).
# Procedures: 22RV1 tumor mass was grafted subcutaneously at the right back of the mice, and the mice were randomized after the mean tumor volume was 150 mm^3. After administration, the animals were monitored daily for health conditions and death, and the routine examinations included observation of the effect on tumor growth and the effect of the treatment on the daily performance of the animals, such as behavioral activities, food and water intake, weight changes (measured once every other day), appearance, or other abnormal conditions. Whether the tumor growth was inhibited or delayed or the tumor was cured was also observed. The tumor volume was measured periodically. The tumor volume was calculated using the following formula: V=1/2×(a×b^2), where a and b denote the long diameter and short diameter of the tumor, respectively.
# 22RV1 = 22RV1 (PSMA overexpression), 72 h, CCK-8
# Description: (§2) Major reagents: 1640 folic acid-free medium, fetal bovine serum, penicillin-streptomycin solution, L-glutamine, and CCK8.
# (§3) Cells were prepared in advance, trypsinized, collected, counted, diluted to 2×10^4 cells/mL in a complete cell culture medium, and plated in 96-well plates. The diluted cell suspension was added at 100 μL/well, and negative and blank control wells were set on each plate. The 96-well plates with the added cells were incubated overnight at 37° C. in a 5% CO2 incubator.
# (§4) Samples were serially diluted with medium (serially 5-fold diluted from 10 μM) to 9 concentrations. The medium in the plates was discarded, and the drug solutions were added at 100 μL per well to a 96-well plate in triplicate. Negative and blank controls were set. The plates were incubated at 37° C. for 72 h in a 5% CO2 incubator.
# as §1
# (§5) Four-parameter curves were fitted using GraphPad Prism 8.0.2 to give IC50 values.
# MDA-MB-231-PSMA = conditions: 72 h, CCK-8
# Description: as §2, §3, §4, §1, §5
# LNCaP [3] = conditions: LNCap (PSMA overexpression), 72 h, CCK-8
# Description: as §2, §3, §4, §1, §5
# 293T-PSMA = conditions: 72 h, CCK-8
# Description: as §2, §3, §4, §1, §5
# MDA-MB-231-FOLR1 = conditions: MDA-MB-231-FOLR1, 72 h, CCK-8
# Description: as §2, §3, §4, §1, §5
# C4-2 = C4-2 (PSMA overexpression), 72 h, CCK-8
# Description: as §2, §3, §4, §1, §5
# Solubility study in PBS = assay type: physicochemical; conditions: aqueous buffer, thermodynamic from solid; PBS (pH 7.2 to 7.4); read-out: Solubility, concentration
# Description: The mixture was vortexed for 2 min until the solid was dissolved. The solubility was calculated as: C=m/V, C: concentration, m: sample weight, V: PBS total volume.
# cathepsin B-human liver = cathepsin B-human liver (Homo sapiens, UniProt P07858); assay: Cathepsin B cleavage study (HPLC); assay type: in vitro ADME; design: cathepsin B-human liver (source: Sigma); purchased Sigma; host or cells: human liver (tissue-derived, as the product name says); conditions: 37° C.
# Description: Procedures: The conjugate compounds were dissolved in acetonitrile-water (1:1, containing 0.1% TFA) to prepare 1 mg/mL stock solutions; 30 μL of the 1 mg/mL stock solution was added to 570 μL of 50 mM NaOAc (containing 1 mM EDTA and 10 mM cysteine), and the mixture was mixed well; 7 μL of cathepsin B (0.05 U/μL) was added, and the mixture was gently mixed evenly; the reaction system was transferred into a 37° C. thermostat for 0, 1, 2, 4, or 8 h of incubation; samples were taken at each time point for HPLC analysis.
# Plasma stability study 1 = assay type: in vitro ADME; conditions: mouse plasma, 37° C.
# Description: Procedures: The conjugate compounds were dissolved in acetonitrile-water (1:1) or acetonitrile-water (1:1, containing 0.1% TFA) to prepare 1 mg/mL stock solutions; 10 μL of the 1 mg/mL stock solution was added to 90 μL of plasma, and the mixture was gently mixed well. The plasma drug samples were shaken and incubated in a 37° C. thermostat for 0, 0.5, 1, 2, 4, 6, or 24 h; at the time points, the samples were taken out and 300 μL of methanol solution (containing 10 ng/ml of terfenadine) was added for protein precipitation; the mixture was centrifuged (12 min, 4° C., 12000 rpm) and the supernatant was collected, and preserved in a −80° C. refrigerator; after collection, the samples were loaded for LC-MS analysis.
# [4] = system: human prostate cancer C4-2 cell subcutaneous xenograft tumor; assay: Pharmacodynamic assessment, C4-2 xenograft model; assay type: in vivo, NCG mouse; conditions: 12.5 mg/kg i.v biw×3, day 23 after grouping
# From the text: Objective: Pre-clinical assessment of the efficacy of compounds for treating NCG mouse model with C4-2 cell subcutaneous xenograft tumor (overexpressing PSMA).
# Procedures: C4-2 cells were subcutaneously grafted at the right back of the mice, and the mice were randomized when the mean tumor volume reached 100-150 mm^3. After the administration, the routine monitoring included the effect on tumor growth and the effect of treatment on the normal behavior of the animals, specifically the activity, food and water intake, weight gain or loss, the eyes, the hair, and other abnormal conditions. Clinical symptoms observed during the study were recorded in the raw data. After the administration was started, the body weight and tumor size of the mice were measured periodically. The tumor volume was calculated using the following formula: V=1/2×(a×b^2), where a and b denote the long diameter and short diameter of the tumor, respectively.
# [5] = 12.5 mg/kg iv biw×3, day 31 after grouping
smiles,measurement,setting,value
Cc1ncsc1-c1ccc(CNC(=O)C2CC(O)CN2C(=O)C(NC(=O)COCC(=O)NC2(C(=O)NCCCn3cc(-c4ccc(OC(F)(F)F)cc4)c4cc(CN5CCN(Cc6c(Cl)cccc6Cl)CC5)ccc43)CCNCC2)C(C)(C)C)cc1 (stereo not shown) [CR202CC],IC50,LNCaP [1],0.3 nM
CC[C@@H]1C(=O)N(C)c2cnc(Nc3ccc(-c4cn(C5CCC(N(CCOCCC#Cc6cccc7c6CN(C6CCC(=O)NC6=O)C7=O)C(=O)OCc6ccc(NC(=O)[C@H](CCCNC(N)=O)NC(=O)[C@H](Cc7ccccc7)NC(=O)CCCCCN7C(=O)CC(SC[C@H](NC(=O)[C@H](CCCCN)NC(=O)[C@H](CC(=O)O)NC(=O)[C@H](CC(=O)O)NC(=O)Cc8ccc(CNC(=O)NCCCC[C@H](NC(=O)N[C@@H](CCC(=O)O)C(=O)O)C(=O)O)cc8)C(=O)N[C@@H](CCCCNC(=O)CC[C@H](NC(=O)c8ccc(NCc9cnc%10[nH]c(N)nc(=O)c%10n9)cc8)C(=O)O)C(N)=O)C7=O)cc6)CC5)nn4)cc3OC)nc2N1C1CCCC1 (stereo partly shown) [CR20293],Mean tumor volume,[2]; [5],46.32 mm^3
same,TGI,[2]; [5],97.51%
same,"Tolerability (body weight, death)","[2]; tumor-bearing BALB/c nude mice, during the study",well tolerated
same,IC50,22RV1,16.4 nM
same,IC50,MDA-MB-231-PSMA,70.6 nM
same,IC50,LNCaP [3],37.9 nM
same,IC50,293T-PSMA,3270 nM
same,IC50,MDA-MB-231-FOLR1,94.2 nM
same,IC50,C4-2,78 nM
same,solubility at 2 min,Solubility study in PBS,20.6 mg/mL
same,CR20274 release rate of conjugate compounds after cleavage,cathepsin B-human liver; 0 h,0%
same,Principal component residue of conjugate compounds after cleavage,cathepsin B-human liver; 0 h,100%
same,CR20274 release rate of conjugate compounds after cleavage,cathepsin B-human liver; 1 h,17%
same,Principal component residue of conjugate compounds after cleavage,cathepsin B-human liver; 1 h,76%
same,CR20274 release rate of conjugate compounds after cleavage,cathepsin B-human liver; 2 h,38%
same,Principal component residue of conjugate compounds after cleavage,cathepsin B-human liver; 2 h,46%
same,CR20274 release rate of conjugate compounds after cleavage,cathepsin B-human liver; 4 h,59%
same,Principal component residue of conjugate compounds after cleavage,cathepsin B-human liver; 4 h,27%
same,CR20274 release rate of conjugate compounds after cleavage,cathepsin B-human liver; 8 h,64%
same,Principal component residue of conjugate compounds after cleavage,cathepsin B-human liver; 8 h,7%
same,CR20274 release rate of compounds in plasma stability study,Plasma stability study 1; 0 h,0.00%
same,Principal component residue of compounds in plasma stability study,Plasma stability study 1; 0 h,83.13%
same,CR20274 release rate of compounds in plasma stability study,Plasma stability study 1; 0.5 h,0.17%
same,"remaining at 0.5 h, 100 μg/mL","Plasma stability study 1; 0.5 h, read-out: Principal component residue of compounds in plasma stability study",75.6%
same,CR20274 release rate of compounds in plasma stability study,Plasma stability study 1; 1 h,0.32%
same,"remaining at 1 h, 100 μg/mL","Plasma stability study 1; 1 h, read-out: Principal component residue of compounds in plasma stability study",75.8%
same,CR20274 release rate of compounds in plasma stability study,Plasma stability study 1; 2 h,0.52%
same,"remaining at 2 h, 100 μg/mL","Plasma stability study 1; 2 h, read-out: Principal component residue of compounds in plasma stability study",67.8%
same,CR20274 release rate of compounds in plasma stability study,Plasma stability study 1; 4 h,0.67%
same,"remaining at 4 h, 100 μg/mL","Plasma stability study 1; 4 h, read-out: Principal component residue of compounds in plasma stability study",69.8%
same,CR20274 release rate of compounds in plasma stability study,Plasma stability study 1; 6 h,0.95%
same,"remaining at 6 h, 100 μg/mL","Plasma stability study 1; 6 h, read-out: Principal component residue of compounds in plasma stability study",70.5%
same,CR20274 release rate of compounds in plasma stability study,Plasma stability study 1; 24 h,3.38%
same,"remaining at 24 h, 100 μg/mL","Plasma stability study 1; 24 h, read-out: Principal component residue of compounds in plasma stability study",45.4%
same,Mean tumor volume,[4],778.70 mm^3
same,TGI,[4],55.47%
